Test results from publication PMC10104585, “Yeast PIC-Mediator structure with RNA polymerase II C-terminal domain” (Proceedings of the National Academy of Sciences of the …, 2023).

B1: Med7 (natural protein, S. cerevisiae, UniProt Q08278 1-222, looked up)
chain: MSNDPGNEVSSLYPPPPPYVKFFTQSNLEKLPKYKEKKAASAKQTAPNNSNGGSEEEITCALDYLIPPPMPKNQQYRAFGSIWQVKDQLPDLESMGLTQLYKKSTENESTNYQYKIQELRKLLKSLLLNYLELIGVLSINPDMYERKVENIRTILVNIHHLLNEYRPHQSRESLIMLLEEQLEYKRGEIREIEQVCKQVHDKLTSIQDTLRTGSQSPPSSSQ
notes: Med7, Mediator middle module subunit, S. cerevisiae; Stood in the assay as a subunit of cMed
B2: Med4 (natural protein, S. cerevisiae)
chain: MSVQDTKAVEFSMGHIRSSSVSLVAEATSNTNSEDKLSKVQLYEDLCRYEDTLSKLVESVDRFKPNLDIAKDLIRTDEALFENVKLLAEYDNIYRNLQKIDKDSEELDSKTRKILEILNECHDELKALPMLEQVEFEKNTILQQRSKINSTELLDYATKLSKFTKIPPTFDKGAVGPNNFIWPAEDALRRGMLAMASLHSKELTRIPGEEVEETEVPTVPPSQSEEQKGQMAKKEGTPKTDSFIFDGTAKEVGDEADNTKDKEKEENNDDALDLDLDLFDPDDF
notes: Med4, Mediator middle module subunit, S. cerevisiae; Stood in the assay as a subunit of cMed
B3: Med10 (natural protein, S. cerevisiae)
chain: MNGNSTNNEQLQQELATTQDQVASIIESFVELGVSIYDFPGTPEATKGMITNLQRNVDRLYKLNVRSNDPQSSLSKVDIPLEVVQYIEDGRNPDIYTREFVEAIRRSNQYQRGKMHGLKQLRDSLADKIVDEFPELKEPVEDIIKRTSPIDNVSNTH
notes: Med10, Mediator subunit (hook domain), S. cerevisiae; Stood in the assay as a subunit of cMed
B4: Med21 (natural protein, S. cerevisiae)
chain: MTDRLTQLQICLDQMTEQFCATLNYIDKNHGFERLTVNEPQMSDKHATVVPPEEFSNTIDELSTDIILKTRQINKLIDSLPGVDVSAEEQLRKIDMLQKKLVEVEDEKIEAIKKKEKLLRHVDSLIEDFVDGIANSKKST
notes: Med21, Mediator subunit (hook domain), S. cerevisiae; Stood in the assay as a subunit of cMed
B5: Med8 (natural protein, S. cerevisiae)
chain: MSQSTASLVPEGNQGSLQEDVSFDFNGVPGQALDAVRMRLAQLTHSLRRIRDEMSKAELPQWYTLQSQLNVTLSQLVSVTSTLQHFQETLDSTVVYPLPKFPTTSHESLVTTLLRKKNIPEVDEWMKYVRETSGVTTALLKDEEIEKLLQQDREITNWARTTFRNEYGKHDFKNEESLSEEHASLLVRDSKPSKPFNVDDVLKFTFTGEKPIITGSTSTSSSN
notes: Med8, Mediator head module subunit, S. cerevisiae; Stood in the assay as a subunit of cMed
B6: Med17 (natural protein, S. cerevisiae)
chain: MTTEDPDSNHLSSETGIKLALDPNLITLALSSNPNSSLHSPTSDEPVPESAGKADTSIRLEGDELENKTKKDNDKNLKFLKNKDSLVSNPHEIYGSMPLEQLIPIILRQRGPGFKFVDLNEKELQNEIKQLGSDSSDGHNSEKKDTDGADENVQIGEDFMEVDYEDKDNPVDSRNETDHKTNENGETDDNIETVMTQEQFVKRRRDMLEHINLAMNESSLALEFVSLLLSSVKESTGMSSMSPFLRKVVKPSSLNSDKIPYVAPTKKEYIELDILNKGWKLQSLNESKDLLRASFNKLSSILQNEHDYWNKIMQSISNKDVIFKIRDRTSGQKLLAIKYGYEDSGSTYKHDRGIANIRNNIESQNLDLIPHSSSVFKGTDFVHSVKKFLRVRIFTKIESEDDYILSGESVMDRDSESEEAETKDIRKQIQLLKKIIFEKELMYQIKKECALLISYGVSIENENKVIIELPNEKFEIELLSLDDDSIVNHEQDLPKINDKRANLMLVMLRLLLVVIFKKTLRSRISSPHGLINLNVDDDILIIRPILGKVRFANYKLLLKKIIKDYVLDIVPGSSITETEVEREQPQENKNIDDENITKLNKEIRAFDKLLNIPRRELKINLPLTEHKSPNLSLMLESPNYCNALIHIKFSAGTEANAVSFDTTFSDFKEVEDFLHFIVAEYIQQKKV
notes: Med17, Mediator head module subunit, S. cerevisiae; Stood in the assay as a subunit of cMed
B7: Med6 (natural protein, S. cerevisiae)
chain: MNVTPLDELQWKSPEWIQVFGLRTENVLDYFAESPFFDKTSNNQVIKMQRQFSQLNDPNAAVNMTQNIMTLPDGKNGNLEEEFAYVDPARRQILFKYPMYMQLEEELMKLDGTEYVLSSVREPDFWVIRKQRRTNNSGVGSAKGPEIIPLQDYYIIGANIYQSPTIFKIVQSRLMSTSYHLNSTLESLYDLIEFQPSQGVHYKVPTDTSTTATAATNGNNAGGGSNKSSVRPTGGANMATVPSTTNVNMTVNTMGTGGQTIDNGTGRTGNGNMGITTEMLDKLMVTSIRSTPNYI
notes: Med6, Mediator head module subunit, S. cerevisiae; Stood in the assay as a subunit of cMed

Molecular target: T1, Rpb1 (RNA polymerase II subunit carrying the C-terminal repeat domain) (S. cerevisiae, UniProt P04050 1-1733)
T1 construct: Rpb1, subunit of RNA polymerase II, S. cerevisiae, with its C-terminal repeat domain (CTD) of 26 heptapeptide repeats of consensus YSPTSPS; Stood in the assay as a subunit of Pol II within the PIC; CTD peptides 1, 2 and 3 are stretches of its CTD seen in the map (6, 3 and 2 repeats); their register within the CTD could not be assigned; also called Rpb1 CTD; Pol II CTD
Assay: cryo-EM structure; PIC-cMed-nucleosome complex assembled from the prepared factors on a His4 promoter / Widom-601 nucleosome template; GraFix sucrose gradient with glutaraldehyde cross-linking; 100 mM KCl, 25 mM K-HEPES pH 7.5, 2 mM MgCl2, 1 mM TCEP; reconstructions at 3.0 Å (PIC-cMed) and 3.6 Å (PIC-cMed-nucleosome), focused maps to 2.9-3.3 Å
Settings: both partners purified

T1 sequence (P04050 whole entry, the tested form may be a part): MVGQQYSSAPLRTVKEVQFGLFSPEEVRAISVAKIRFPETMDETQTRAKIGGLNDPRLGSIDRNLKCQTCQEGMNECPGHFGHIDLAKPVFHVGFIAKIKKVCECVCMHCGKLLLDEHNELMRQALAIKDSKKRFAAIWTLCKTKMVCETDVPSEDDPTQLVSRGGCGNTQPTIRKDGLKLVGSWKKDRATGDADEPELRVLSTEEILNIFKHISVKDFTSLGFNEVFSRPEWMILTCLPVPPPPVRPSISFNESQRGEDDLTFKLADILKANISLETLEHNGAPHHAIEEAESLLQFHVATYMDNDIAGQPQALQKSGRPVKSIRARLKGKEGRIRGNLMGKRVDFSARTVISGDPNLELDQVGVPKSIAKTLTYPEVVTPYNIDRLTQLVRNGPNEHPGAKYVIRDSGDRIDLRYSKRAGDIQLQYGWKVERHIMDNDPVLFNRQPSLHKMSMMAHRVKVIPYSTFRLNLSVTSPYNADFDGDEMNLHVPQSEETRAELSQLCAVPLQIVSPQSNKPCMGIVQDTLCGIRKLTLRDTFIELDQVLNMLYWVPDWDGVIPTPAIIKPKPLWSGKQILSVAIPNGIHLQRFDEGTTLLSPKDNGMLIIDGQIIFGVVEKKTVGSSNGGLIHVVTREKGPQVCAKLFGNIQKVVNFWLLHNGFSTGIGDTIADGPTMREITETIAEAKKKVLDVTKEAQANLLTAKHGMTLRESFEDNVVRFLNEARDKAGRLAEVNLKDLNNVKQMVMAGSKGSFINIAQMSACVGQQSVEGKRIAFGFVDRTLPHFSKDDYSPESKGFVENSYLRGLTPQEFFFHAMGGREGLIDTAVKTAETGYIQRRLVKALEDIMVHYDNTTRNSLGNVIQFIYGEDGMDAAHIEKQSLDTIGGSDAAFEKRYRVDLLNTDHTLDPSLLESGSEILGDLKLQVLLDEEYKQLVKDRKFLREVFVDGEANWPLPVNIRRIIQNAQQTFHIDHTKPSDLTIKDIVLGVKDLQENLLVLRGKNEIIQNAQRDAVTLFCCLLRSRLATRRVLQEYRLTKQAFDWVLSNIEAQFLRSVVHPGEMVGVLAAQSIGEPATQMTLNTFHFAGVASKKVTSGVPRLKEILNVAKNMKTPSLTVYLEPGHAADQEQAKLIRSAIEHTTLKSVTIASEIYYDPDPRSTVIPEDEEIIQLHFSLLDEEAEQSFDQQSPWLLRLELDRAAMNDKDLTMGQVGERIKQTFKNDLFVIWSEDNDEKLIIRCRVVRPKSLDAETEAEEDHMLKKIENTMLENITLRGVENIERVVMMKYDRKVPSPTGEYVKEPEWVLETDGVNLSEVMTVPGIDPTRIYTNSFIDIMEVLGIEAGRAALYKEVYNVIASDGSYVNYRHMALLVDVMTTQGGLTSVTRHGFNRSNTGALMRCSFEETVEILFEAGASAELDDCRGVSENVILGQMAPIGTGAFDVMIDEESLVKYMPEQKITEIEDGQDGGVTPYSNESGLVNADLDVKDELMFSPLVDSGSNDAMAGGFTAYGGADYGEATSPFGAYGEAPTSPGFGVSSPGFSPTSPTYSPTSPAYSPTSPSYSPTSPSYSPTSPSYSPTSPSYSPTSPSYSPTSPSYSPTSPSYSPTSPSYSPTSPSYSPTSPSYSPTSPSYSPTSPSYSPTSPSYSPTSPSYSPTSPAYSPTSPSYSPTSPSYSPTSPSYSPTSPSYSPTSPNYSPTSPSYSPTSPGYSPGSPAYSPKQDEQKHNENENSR

Binder	binding result
B1	binds
B2	binds
B3	binds
B4	binds
B5	binds
B6	binds
B7	binds
